Assay: label from the status in PepcDB records
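Also: failed if final PepcDB status was selected cloned or expressed and not failed if soluble or beyond.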

MRWKYLVVLLIVILLASGCAEKSQGPGASAAFQEPESDTQDTEKTGNSEEGVHIDSVVFSRAGALLTLKDEAEISEIRVYSESEEIASQEIGKNKDNVFVSFNWDPEARYRFEVITGSGASGTIEAYAPSKPALKKEYTIELEDVTPGDIEKTSTNVEGALKFSPDSEYLAIGTNGGSLKLIKVATGEKVWEKQLVKGIADARIADIEFSEDGKRLFVGEESPDAFLYCFDLEGTEIWKYGAGKELGSDLKYMPAMKKIKLDSEGNIYVAASRACGYIGEKYKYLARIYSFDPEGNLRWKFPESEYMDSGVTWIDATPDGKYAVFGTTCFTETEKWREGTVHALNGNTGQEHWSYKIQPVEPFFDYSAIWYSTQITPDGEKLITMTSDGRAFLFNNSRIIETGTPEITWQQNISTPIVVSGVPIYGSANYAYIVNDTLIFSIGSTFSKDKNKDAPFEHPSGNSLFAYDYDGNLLWKWRVDGYAGECAVNDRYLVIPLAQNLVTEDRSVHGVYVFDASKSGGASSRLIQTYNTEGITVSADISPDGRYIAALEAPSRLDDGTVLGEYKVHILT
protein production: failed

RSTIGAGQKVNVEFVSANPTGPMHVGHVRGAVVGDALARLLAYAGWNVTREYYINDGGAQVDVLARSAFERYREAHGLEPEIREGLYPGDYLIPVGEALKAKYGDSLLDKGEQHWLTEVREFATEMMMQMIREDLAALGVEMDVYSSEKALYGTGKIEAALDRLKEMDLIYEGVLEPPKGKTPEDWEPREQTLFRSTAHGDDVDRPVKKSDGSWTYFAPDIAYHYDKVTRGFDQLIDIFGADHGGYVKRMKAAVAALSAGRVPLDIKLIQLVKLWKNGEPFKMSKRAGTYVTLRDVVEQVGTDVTRFVMLTRKNDATLDFDFDKVLEQSKENPVFYVQYANARINSVLRKAREQGMDVSDA
protein production: failed

ITKRNVELRVDDSLMRVYVASPKPVGVYPGIVFYSDIYQLGSPIIRLANYLAGFGYVVAAPEIFHRLEPIGLVIEPDDLGRMRGNDNARRTAIAEYDADSRAVIDFLKAETTVNANK
protein production: failed

MGKEIEIERKTLVSKETFKRLISQLHIGEGDFKLQRNHYFETDDFQLKKQSSALRIREKEAIFTFTLKQPHPAGLLETNQTLSKQEAKLALESAHFPSGEVMDALRDLSIPISQLKHIGTLSTSRAEISYEQGILCLDHSSYLGIEDYEIEFEGTSEEHATVTFQEILKTFSISQVPTENKIQRFFSKKEKN
protein production: not failed

GKGKNIIVLHLESFQQFLIDYKLKEGDKEYEVTPFINSLYHSNATLAFPNFFHQVKAGKTSDAETMMENSLFGLNSGSFMVNYGGENTQFATPSILAQKGGYTSAVFHGNVGTFWNRNNAYKQWGYNYFFDSSYFSKQNSKNSFQYGLNDKYMFKDSIKYLEQMQQPFYTKFITVSNHYPYTSLKGESSEEGFPLAKTDDETINGYFATANYLDAALKSFFDYLKATGLYDNSIFVLYGDHYGISNSRNSSLAPLLGKDSETWSEYDNAMLQRVPYMIHIPGYTNGSIKETFGGEIDALPTLLHILGIDTSQFVQLGQDLLSPQNSQIVAQRTSGTYMTPEYTNYSGRLYNTQTGLEIT
protein production: failed

MKQRTLPAAFLLALSIASLAGCASPTVITLNDGREIQAVDTPKYDEDSGFYEFKQLDGKQTRINKDQVRTVKDLLEHHHHHH
protein production: failed

MFEYRCSSIDWKPSPVVALATSADGSQVAAAREDGSLELWLVSPGASSWHCQLIIHGDPKSRISHLAWFGTGSKGSSSARLFSSSIDGSISEWDLFDLKQKVVLDSIGFSIWQIALAPISIEAESKEAKLIQNGYLSEKSDDEEESGVEDDSELDELDEKVEALDRHLAAACDDGCVRIYYISESDKLTYYRSLPRVTGRALSVTWSADAQRIFSGSSDGLIRCWDANLCHEVYRITVGLGGLGNGSELCIWSLLSLRYGVLVSGDSTGSVQFWDSQHGTLLQAHSNHKGDVNALAASPSHNRVFSAGADGQVILYKLSGGTSRSQDFKPSSAQKWDYIGCVRAHTHDIRALTVAVPISWEGSIPDRNAKVTSPKQRRKEPAGFSYHKWAHLGVPMLISAGDDAKLYAYSVQEFTKFPPHDICPAPQRVPMQMVHNTVFNQTSLLLVQDSCSLDILRIHISNDSSGRVSTKPLVRVKSKDARKIICSAISNTGSLFAYSDQVRPSLFELKKNKIGKNPWSANRKRLPNLPFAHSMVFSCDCSRLIIAGHDRRIYIVDVGSMELLHSFTPRQEGQEGESPPHEPPITKLYTSSNDDWLAAINCFGDIYVFNLETQRQHWFISRLDGASVAAAGFHPRDNNVIVISTSSNQVFALDVEARELSKWSLLQTFCLPKSYQNFPGEVVGLSFSPSPCSSSVIIYSSRAKCLIEFGKPAEQDEDTDTPCNLSEKLEGKLASISMKLGNGAQKRRLEEYQKESKSNKRKKFEMVTSKHPVLYLRHLSKSAILVIEKPWMEVIKNLDTQPVHRHIFGT
protein production: failed

MPKDNEEPLVKIPEFDERKFLFDEKERAKSIVIIFIIGAIVGSISGYFQLIGYWYLSLILILVVLLFSEYILKGLGVQVSKKTSHRILLVGEFLLTWLVFWILVLNPPLNHVSGPEIANLQMYSNNVWTSIVEKNGVYNIPFGSATSGTVSLRVYMFAYSGVVSYKVMAYQSSYAPAVIPSHLNDNYLYFNLTDVHYGSTYYVQVYGSTTVNGSNLTSEVSYTLYAE
protein production: failed

VQPLATQCFQLSNMFNPQTEEEVGWDTEIKDDVIEECNKHGGVIHIYVDKNSAQGNVYVKCPSIAAAIAAVNALHGRWFAGKMITAAYVPLPTYHNLFPDSMTATQLLVPSRR
protein production: not failed

MNAAVVRRTQEALGKVIRRPPLTEKLLSKPPFRYLHDIITEVIRMTGFMKGLYTDAEMKSDNVKDKDAKISFLQKAIDVVVMVSGEPLLAKPARIVAGHEPERTNELLQIIGKCCLNKLSSDDAVRRVLAGEK
protein production: not failed

MRAFPFFRPVLAQLMKHRVAQESTRRWLDRIIQIIKYAYCQKLRRHFCQATLWKMIQLIVNGQSQLVPSPDSGTDSGTTNDARLNIRQLLEHMGLQGKRIAVERNGEIVPRSQFDQPMLASGDKLEIVVAVGGGLEHHHHHH
protein production: failed

MKVIILGSGSYSGTPKPLCTCENCTRARINPAFRRTRFSVYIEGGILIDPGPDLHYHLEKLNKEVETILITHAHFDHIFGLPDAQVFKKLTIASNPLGIKVARSLAMLAFNSEAPLGNDWDYVELKFWNEYKVNGVKVIHFPVVHSIEMAGGFLIERKNKTVAITGDTGPEIIRDSEVIDLIKGSDLLISEMTHKESIPKTHLGVNDAIELAKIVKAEQTVFAHISHSNYPQEILEKKVREAKISGIVARDFTIIEI
protein production: failed

MYPDLVHLGGADKYFEEILEIVNKIKLFGDFSNEEVRYLCSYMQCYAAPRDCQLLTEGDPGDYLLLILTGEVNVIKDIPNKGIQTIAKVGAGAIIGEMSMIDGMPRSASCVASLPTDFAVLSRDALYQLLANMPKLGNKVLIRLLQLLTARFRESYDRILPKTLGELI
protein production: not failed

MSYKVLPLSEVMSHEFGLIEGNFHNISEADIASAIPSHLTFEQLKQHLYEGNLALVSDTPQTPALLSYNDPIGPKTWRLNSEVISELSDDAANNLLAITKTTRATGGYRSCIGETSTLERVYTPQPIATESEEEITKEFEYSFEVGCSDATIKKMVHSDFALAKTEKENAVTRWEQTNTEQGTRYTALCVFDEPKRLNIHIADDNLGLTPLEAVTLQKAGSCKTDEGFIPVVPAVRLGERLGLPTEGYYYHFNDGELVQEYKILGEEKWAFYATQSTQDKLNDERGFTKDQSAILVYWKLADQIIENQYIIYLERQITREELDNLSEDWLCENGIKLDIPALFDAVKQPEEARSEGNNDETQAEQTAATHTVTVGEDWQSIAELYGMGAKALLLLNPVFEADPLSLAVGDEIIVAEKQQQQAPDKKNTFPPLRPQTYNNIRNSHYQHSDPLLGLTKYRAINTADCIEGDVVILNLKDATSSIVFAKSCTRPEGCIEIGDQQESISNFGPWSFFFAQANANPAAVIPAIQATQAQMAMGSSAAVAGSPEQMQQTQTAAMQLDKLAGTLKEKIVEGYRWQVEGIGALFAMQQSLFGDNTQYTDQDLRQVTTAQSRVRVHITEPQGGEFYPHVQGYHVDDTRIPIKYVKQGNNGQLSVAIEENGPTIYWTPEENGEASWQTTPDHSDGFEKDDILVTPIHSDSDANVTVTPAPEEKDWRDAILVFPESSGIAPLYVVYKESPRDKPGVVTGKGEDIFGIWLADAGKDLGAPIPSQIADKLRGREFSSFDAFREGFWYAVGEDQTLINQFSRANQRLIKRGRSPFSLPSEQVGGRQRYELHHKEEIQYGGEVFHVDNLCVLTPKRHISIHKDQ
protein production: failed

MILVFLDNMASIKDLNLIDEINDSSNLKLINDRLKLLFWTKNPEITDEENKKKYLDFLNEYWDTLRAYGAGDLELFPDKINYLTLILAANSKNHNIYIKKLAEKYAEKIPIEDGDSKINIWDFIDVAANSRNNDLHLERMILEGDTVLLNQKNQSIYNFEKIRLKLKNYVEKVRNAEMPKEIKDLLVKKSEEAFEGINIGYNIESGIKVSTKEYSGEIPEDWHPPCMREILNDILSGGSPSHYARRSFVVYRFVSQFDPNLRPIEEGIITNRSAQDIATEEQIERFLDEIINIFKSVGDFDVEKTKYYISHNIGYKVANHITHCEYCKNWRDDGGKGLGYYCRPDSTCSRKDIIHPLDYLCHNINRHVKKSELEHHHHHH
protein production: failed

MIMHIPKSTYYHKWFIGATLVVPVLPLAAQTSPNLVFIMADQYRGDALGCLGKEPVKTPCLDHLASEGVLFTNAVSSYPVSSPARAMLMTGMYPLHNKVTGNCNSQTAPYGVELPQEARCWSDVLKDMNYRTGYIGKWHLDSPYKPYVDTYNNRGKVAWNEWCPPERRHGFEYWTAYGTYDYHLKPMYWDTTAPRDSFYYVNQWGPAYEADKAIEYIQTQKENKQPFALVVSMNPPHTGYELVPDKYKALYKDIDVEALCAHRPDIPAKGTEMGNYFRNNIRNYYACITGVDEQVGRIIETLKSNGLFENTIIVFTSDHGICMGAHNNAGKDIFYEEAMRIPMIISWPAKIKPRKDDHLMIAFADLYPSLLSLMGFRKEIPETVQTFDLSRHILGKSKKEVVQPYYYVQFDNHATGYRGLRTSTHTFAVHATNGKIDETVLFDRTKDPYQMDNIAGQSPRLVRQFNKQLKAWLLHTNDSFAHYLETVTKLEHHHHHH
protein production: not failed

MNRLKKWIRYVPDRIDDGLRYLCGRMSPDVRLVCVVVMLTGFGCLSIYMTVSSIYRIGRHEGEQLQMDHIRRMELYRGINKDSINIKNQVDYGEPKKSGTATGERCNA
protein production: failed

MGFHLRGAIDIPEWLDNVSIISRDGNKELVSILKSQLEGYKIDVNSDPSLAKYWLIINSSSLQQQIVSIGASTNPRQYQLILTIEFMLQTPKGQIIKTPRKVNVSRQLTVNNDRILGSNEEQALLVSEMRRDAAIQIINRLNRPLEHHHHHH
protein production: not failed

From a protein production outcome set (Wang et al. 2014)
